# Results as given in patent US12559863B2, “Macrocyclic modulators of disease associated protein misfolding and aggregation” (RESQ BIOTECH, priority 2017, dated 2026).
# Target: T1, Aβ42-GFP (Homo sapiens, UniProt P05067)
# T1 construct: a chimeric fusion of the human Aβ(1-42) peptide (Aβ42) with GFP; expressed in transfected cells; host or cells: E. coli BL21(DE3)
# Experiment: High-throughput sequencing of pSICLOPPS vectors isolated after bacterial sorting for enhanced Aβ42-GFP fluorescence
# Details: for Reads/Total TXXXR reads (%): relative to total TXXXR reads; for Normalized read number (%): Table 3, cyclo-TXXR tetrapeptides
# How it was run: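 E. coli BL21(DE3) expressing Aβ42-GFP from the T7 promoter was co-transformed with cyclic peptide libraries (0.002% L-arabinose, 0.1 mM IPTG at OD600 ~0.5, 37° C). High-fluorescence cells were sorted over repeated rounds. Plasmid peptide-encoding regions were then sequenced by Ion Torrent, discarding sequences with stop codons.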
# [1] = after the second round of bacterial sorting
# [2] = after the second round of bacterial sorting, relative to total pentapeptide reads
# [3] = after the second round of bacterial sorting, relative to total peptide reads
# [4] = high-throughput sequencing of isolated pSICLOPPS-NuX1X2X3-X5 vectors after the second round of bacterial sorting for enhanced Aβ42-GFP fluorescence, selected cyclo-TXXXR pentapeptides
# [5] = after the second round of bacterial sorting for enhanced Aβ42-GFP fluorescence
# [6] = after the second round of bacterial sorting for enhanced Aβ42-GFP fluorescence, relative to total pentapeptide reads
# [7] = after the second round of bacterial sorting for enhanced Aβ42-GFP fluorescence, relative to total peptide reads
# [8] = pSICLOPPS-NuX1X2X3-X5 vectors after the second round of bacterial sorting for enhanced Aβ42-GFP fluorescence
# [9] = Table 4, hexapeptides, after second round of sorting
Substance,Reads/Total TXXXR reads (%) [1] [%],Reads/Total pentapeptide reads (%) [2] [%],Reads/Total peptide reads (%) [3] [%],Number of reads [4],also measured
AβC5-299 (TTVGR; cyclic),0.011,0.005,0.004,200,–
AβC5-464 (TTPAR; cyclic pentapeptide),–,–,–,–,Reads/Total TXXXR reads (%) [5]: 0.003%; Reads/Total pentapeptide reads (%) [6]: 0.001%; Reads/Total peptide reads (%) [7]: 0.001%; Number of reads [8]: 54
AβC5-123 (TTVHR; cyclic),0.177,0.083,0.074,"3,371",–
AβC5-158 (TTGAR; cyclic),0.062,0.029,0.026,"1,172",–
cyclo-TDQR (cyclic) [AβC4B-9],–,–,–,–,Normalized read number (%): 2.09%
AβC5-3 (TTVDR; cyclic),11.276,5.282,4.734,"214,461",–
AβC5-218 (TVLHR; cyclic),0.026,0.012,0.011,497,–
AβC5-382 (TTITR; head-to-tail cyclic),0.005,0.002,0.002,92,–
AβC5-215 (TTPWR; cyclic),0.028,0.013,0.012,524,–
TLSWYD [AβC6-47],–,–,–,–,Reads/Total hexapeptide reads (%) (Table 4): 0.053%; Reads/Total peptide reads (%) (Table 4): 0.005%; Number of reads [9]: 239
AβC5-413 (TSHAR; cyclic pentapeptide),–,–,–,–,Reads/Total TXXXR reads (%) [5]: 0.004%; Reads/Total pentapeptide reads (%) [6]: 0.002%; Reads/Total peptide reads (%) [7]: 0.002%; Number of reads [8]: 74
cyclo-TRRR (cyclic) [AβC4-41],–,–,–,–,Normalized read number (%): 0.2467%
AβC5-50 (TALAR; cyclic pentapeptide),1.022,0.479,0.429,"19,433",–
AβC5-188 (TGMRR; cyclic),0.040,0.019,0.017,768,–
AβC5-272 (TCMWR; cyclic),0.013,0.006,0.006,254,–
AβC5-248 (TTTHR; cyclic),0.018,0.008,0.007,339,–
AβC5-155 (TSLDR; cyclic),0.066,0.031,0.028,"1,251",–
TLWVFD [AβC6-37],–,–,–,–,Reads/Total hexapeptide reads (%) (Table 4): 0.078%; Reads/Total peptide reads (%) (Table 4): 0.008%; Number of reads [9]: 355
AβC5-5 (TTTWR; cyclic pentapeptide),9.228,4.323,3.874,"175,510",–
TPVWLD [AβC6-80],–,–,–,–,Reads/Total hexapeptide reads (%) (Table 4): 0.012%; Reads/Total peptide reads (%) (Table 4): 0.001%; Number of reads [9]: 55
AβC5-298 (TTRGR; cyclic),0.011,0.005,0.004,201,–
AβC5-405 (TTSHR; head-to-tail cyclic),–,–,–,–,Reads/Total TXXXR reads (%) [5]: 0.004%; Reads/Total pentapeptide reads (%) [6]: 0.002%; Reads/Total peptide reads (%) [7]: 0.002%; Number of reads [8]: 78
AβC5-223 (TGLDR; cyclic),0.024,0.011,0.010,464,–
AβC5-317 (TTAWR; head-to-tail cyclic),0.008,0.004,0.003,156,–
AβC5-379 (TRLGR; head-to-tail cyclic),0.005,0.002,0.002,95,–

Substance,Reads/Total TXXXR reads (%) [1] [%],Reads/Total pentapeptide reads (%) [2] [%],Reads/Total peptide reads (%) [3] [%],Number of reads [4],also measured
AβC5-441 (TAWDR; cyclic pentapeptide),–,–,–,–,Reads/Total TXXXR reads (%) [5]: 0.003%; Reads/Total pentapeptide reads (%) [6]: 0.002%; Reads/Total peptide reads (%) [7]: 0.001%; Number of reads [8]: 61
AβC5-12 (TTWAR; cyclic),3.466,1.624,1.455,"65,929",–
TVTWFD [AβC6-6],–,–,–,–,"Reads/Total hexapeptide reads (%) (Table 4): 3.778%; Reads/Total peptide reads (%) (Table 4): 0.377%; Number of reads [9]: 17,100"
cyclo-SICPT [AβC5-216],–,–,–,–,"Reads/Total SASPT-like reads (%) (Table 2): 1.957%; Reads/Total pentapeptide reads (%) (Table 2): 0.013%; Reads/Total peptide reads (%) (Table 2): 0.011%; Number of reads (Table 2, after second round of sorting): 516"
AβC5-452 (THVDR; cyclic pentapeptide),–,–,–,–,Reads/Total TXXXR reads (%) [5]: 0.003%; Reads/Total pentapeptide reads (%) [6]: 0.001%; Reads/Total peptide reads (%) [7]: 0.001%; Number of reads [8]: 58
AβC5-384 (TTYTR; head-to-tail cyclic),0.005,0.002,0.002,90,–
AβC5-184 (TVLAR; cyclic),0.043,0.020,0.018,818,–
AβC5-453 (TLFWR; cyclic pentapeptide),–,–,–,–,Reads/Total TXXXR reads (%) [5]: 0.003%; Reads/Total pentapeptide reads (%) [6]: 0.001%; Reads/Total peptide reads (%) [7]: 0.001%; Number of reads [8]: 57
AβC5-44 (TAWAR; cyclic pentapeptide),1.094,0.512,0.459,"20,807",–
AβC5-411 (TTQRR; cyclic pentapeptide),–,–,–,–,Reads/Total TXXXR reads (%) [5]: 0.004%; Reads/Total pentapeptide reads (%) [6]: 0.002%; Reads/Total peptide reads (%) [7]: 0.002%; Number of reads [8]: 75
AβC5-260 (TTWTR; cyclic),0.016,0.007,0.007,295,–
cyclo-TLGR (cyclic) [AβC4B-86],–,–,–,–,Normalized read number (%): 0.1697%
AβC5-428 (TTCGR; cyclic pentapeptide),–,–,–,–,Reads/Total TXXXR reads (%) [5]: 0.004%; Reads/Total pentapeptide reads (%) [6]: 0.002%; Reads/Total peptide reads (%) [7]: 0.002%; Number of reads [8]: 69
AβC5-473 (THVAR; cyclic pentapeptide),–,–,–,–,Reads/Total TXXXR reads (%) [5]: 0.003%; Reads/Total pentapeptide reads (%) [6]: 0.001%; Reads/Total peptide reads (%) [7]: 0.001%; Number of reads [8]: 51
TPIVFD [AβC6-36],–,–,–,–,Reads/Total hexapeptide reads (%) (Table 4): 0.085%; Reads/Total peptide reads (%) (Table 4): 0.008%; Number of reads [9]: 384
TSVEYE [AβC6-41],–,–,–,–,Reads/Total hexapeptide reads (%) (Table 4): 0.068%; Reads/Total peptide reads (%) (Table 4): 0.007%; Number of reads [9]: 307
AβC5-255 (TTSRR; cyclic),0.017,0.008,0.007,325,–
AβC5-29 (TTLER; cyclic),1.447,0.678,0.607,"27,514",–
AβC5-27 (TTSAR; cyclic),1.482,0.694,0.622,"28,188",–
AβC5-51 (TSVDR; cyclic pentapeptide),1.012,0.474,0.425,"19,249",–
AβC5-177 (TATAR; cyclic),0.049,0.023,0.020,925,–
AβC5-315 (TTSER; head-to-tail cyclic),0.008,0.004,0.003,158,–
AβC5-176 (TAGWR; cyclic),0.050,0.023,0.021,945,–
AβC5-253 (TTWFR; cyclic),0.017,0.008,0.007,327,–
AβC5-469 (TTIGR; cyclic pentapeptide),–,–,–,–,Reads/Total TXXXR reads (%) [5]: 0.003%; Reads/Total pentapeptide reads (%) [6]: 0.001%; Reads/Total peptide reads (%) [7]: 0.001%; Number of reads [8]: 53
